Measurements: US20210061914A1 (published 2021)

B1: scFv G5-P1C12 (scFv, V domains shown)
VH: QVQLVQSGAEVKKPGSSVKVSCKASGGTFSNFGVSWLRQAPGQGLEWMGGIIPILGTANYAQKFQGRVTITADESTSTAYMELSSLRSEDTAVYYCATPTNSGYYGPYYYYGMDVWGQGTTVTVSS
VL: DIQMTQSPSSLSASVGDRVTITCRASQSISSWLAWYQQKPGKAPKLLIYAASTLQSGVPSRFSGSGSGTDFTLTISSLQPEDFATYYCQQSYSIPLTFGGGTKVEIK
notes: scFv
B2: scFv G5-P1B12 (scFv, V domains shown)
VH: EVQLLESGGGLVQPGGSLRLSCAASGFTFSNSDMNWVRQAPGKGLEWVASISSSGGYINYADSVKGRFTISRDNSKNTLYLQMNSLRAEDTAVYYCAKVNWNDGPYFDYWGQGTLVTVSS
VL: DIQMTQSPSSLSASVGDRVTITCRASQSISSWLAWYQQKPGKAPKLLIYAASSLQSGVPSRFSGSGSGTDFTLTISSLQPEDFATYYCQQANSFPLTFGGGTKVEIK
notes: scFv
B3: scFv G5-P3G08 (scFv, V domains shown)
VH: QVQLVQSGAEVKKPGASVKVSCKASGYIFRNYPMHWVRQAPGQGLEWMGWINPDSGGTKYAQKFQGRVTMTRDTSTSTVYMELSSLRSEDTAVYYCARDNGVGVDYWGQGTLVTVSS
VL: DIQMTQSPSSLSASVGDRVTITCRASQGISNYLAWYQQKPGKAPKLLIYAASSLQSGVPSRFSGSGSGTDFTLTISSLQPEDFATYYCQQSYITPYTFGQGTKLEIK
notes: scFv
B4: scFv G5-P4B02 (scFv, V domains shown)
VH: QVQLVQSGAEVKKPGASVKVSCKASGYTFTGYYMHWVRQAPGQGLEWMGWMNPNIGNTGYAQKFQGRVTMTRDTSTSTVYMELSSLRSEDTAVYYCARGIADSGSYYGNGRDYYYGMDVWGQGTTVTVSS
VL: DIVMTQSPDSLAVSLGERATINCKTSQSVLYRPNNENYLAWYQQKPGQPPKLLIYQASIREPGVPDRFSGSGSGTDFTLTISSLQAEDVAVYYCQQYYTTPYTFGQGTKLEIK
notes: scFv
B5: scFv G5-P1-E05 (scFv, V domains shown)
VH: QVQLVQSGAEVKKPGASVKVSCKASGYTFTSYNMHWVRQAPGQGLEWMGWINPNSGGTNYAQKFQGRVTMTRDTSTSTVYMELSSLRSEDTAVYYCARDVMDVWGQGTTVTVSS
VL: DIQMTQSPSSLSASVGDRVTITCRASQGISNYLNWYQQKPGKAPKLLIYYASSLQSGVPSRFSGSGSGTDFTLTISSLQPEDFATYYCQQTYMMPYTFGQGTKVEIK
notes: scFv
B6: scFv G5-P3G01 (scFv, V domains shown)
VH: QVQLVQSGAEVKKPGASVKVSCKASGGTFSGYLVSWVRQAPGQGLEWMGWINPNSGGTNTAQKFQGRVTMTRDTSTSTVYMELSSLRSEDTAVYYCAREGYGMDVWGQGTTVTVSS
VL: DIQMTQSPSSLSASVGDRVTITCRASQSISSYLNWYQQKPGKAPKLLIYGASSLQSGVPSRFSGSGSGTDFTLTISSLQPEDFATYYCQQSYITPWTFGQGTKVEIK
B7: scFv G5R4-P4A07 (scFv, V domains shown)
VH: QVQLVQSGAEVKKPGASVKVSCKASGYTFTSYYMHWVRQAPGQGLEWMGWMNPNSGNTGYAQKFQGRVTMTRDTSTSTVYMELSSLRSEDTAVYYCARELPIGYGMDVWGQGTTVTVSS
VL: not shown
notes: scFv
B8: scFv G5R4-P4B01 (scFv, V domains shown)
VH: QVQLVQSGAEVKKPGSSVKVSCKASGGTFSSYAISWVRQAPGQGLEWMGGIIPIVGTANYAQKFQGRVTITADESTSTAYMELSSLRSEDTAVYYCARGGSYYYYGMDVWGQGTTVTVSS
VL: not shown
notes: scFv
B9: Fab clone R3G8-P2C10 (Fab, V domains shown)
VH: QVQLVQSGAEVKKPGASVKVSCKASGYTFTSYYMHWVRQAPGQGLEWMGWINPYSGGTNYAQKFQGRVTMTRDTSTSTVYMELSSLRSEDTAVYYCAKGGIYYGSGSYPSWGQGTLVTVSS
VL: DIQMTQSPSSLSASVGDRVTITCRASQDVSTWLAWYQQKPGKAPKLLIYAASSLQSGVPSRFSGSGSGTDFTLTISSLQPEDFATYYCQQSHSTPQTFGQGTKVEIK
notes: Fab made in HEK293
B10: Fab clone G8-P1C11 (Fab, V domains shown)
VH: QVQLVQSGAEVKKPGASVKVSCKASGGTLSSYPINWVRQAPGQGLEWMGWISTYSGHADYAQKLQGRVTMTRDTSTSTVYMELSSLRSEDTAVYYCARSYDYGDYLNFDYWGQGTLVTVSS
VL: DIQMTQSPSSLSASVGDRVTITCQASQDISNYLNWYQQKPGKAPKLLIYAASSLQSGVPSRFSGSGSGTDFTLTISSLQPEDFATYYCQQSYSIPPTFGGGTKVDIK
notes: Fab made in HEK293; also called R3G8-P1C11
B11: Fab clone R3G8-P2E04 (Fab, V domains shown)
VH: QVQLVQSGAEVKKPGSSVKVSCKASGGTFSSYGVSWVRQAPGQGLEWMGWISPYSGNTDYAQKFQGRVTITADESTSTAYMELSSLRSEDTAVYYCARGLYYMDVWGKGTTVTVSS
VL: DIQMTQSPSSLSASVGDRVTITCRASQSISSWLAWYQQKPGKAPKLLIYDASNLETGVPSRFSGSGSGTDFTLTISSLQPEDFATYYCQQSYSTPLTFGGGTKLEIK
notes: Fab made in HEK293
B12: Fab clone R3G10-P1B07 (Fab, V domains shown)
VH: QVQLVQSGAEVKKPGASVKVSCKASGYTFTSYYMHWVRQAPGQGLEWMGIIHPGGGTTSYAQKFQGRVTMTRDTSTSTVYMELSSLRSEDTAVYYCARDKVYGDGFDPWGQGTLVTVSS
VL: DIQMTQSPSSLSASVGDRVTITCRASQSISRWLAWYQQKPGKAPKLLIFDASRLQSGVPSRFSGSGSGTDFTLTISSLQPEDFATYYCQQAEAFPYTFGQGTKVEIK
notes: Fab made in HEK293
B13: Fab clone R3G10-P4E07 (Fab, V domains shown)
VH: QVQLVQSGAEVKKPGSSVKVSCKASGYTFTGYYMHWVRQAPGQGLEWMGRISPSDGSTTYAPKFQGRVTITADESTSTAYMELSSLRSEDTAVYYCARDMGDAFDIWGQGTTVTVSS
VL: not shown
notes: Fab made in HEK293

These binders were tested against HLA-B*35:01_… (HLA-PEPTIDE target G5), soluble (human, enzymatically biotinylated (BirA)) (assay: scFv PPE ELISA).
In the case of B1, the “fold selective binding, target pHLA vs minipool of negative control pHLAs” value (“fold selective binding, target pHLA” below) is reported as no less than 3 fold. With B2 the “fold selective binding, target pHLA” value was no less than 3 fold. In the case of B3, the “fold selective binding, target pHLA” value is reported as no less than 3 fold. With B4 the “fold selective binding, target pHLA” value was no less than 3 fold. For B5, the “fold selective binding, target pHLA” value was no less than 3 fold. For B6, the “fold selective binding, target pHLA” value was no less than 3 fold. With B7 the “fold selective binding, target pHLA” value was no less than 3 fold. In the case of B8, the “fold selective binding, target pHLA” value is reported as no less than 3 fold.

These binders were tested against HLA-A*02:01_… (HLA-PEPTIDE target G8), soluble (human, enzymatically biotinylated (BirA) for screening and BLI) (assay: BLI (Octet), biotinylated pHLA on streptavidin sensor, Fab in solution, 1:1 model).
For B9, the Kd was 17.7 nM, the koff was 0.0013 s⁻¹ and the kon was 75000 M⁻¹ s⁻¹. Binder B10 has a Kd of 178 nM, a koff of 0.0338 s⁻¹ and a kon of 190000 M⁻¹ s⁻¹. With B11 the Kd was 286 nM, the koff was 0.0789 s⁻¹ and the kon was 545000 M⁻¹ s⁻¹.

What follows are binders tested against HLA-A*01:01_… (HLA-PEPTIDE target G10), soluble (human, enzymatically biotinylated (BirA)) in the same assay as above.
B12 gave a Kd of 37.5 nM, a koff of 0.00615 s⁻¹ and a kon of 165000 M⁻¹ s⁻¹. B13 showed a Kd of 428 nM, a koff of 0.111 s⁻¹ and a kon of 477000 M⁻¹ s⁻¹.
